What was measured:
[1] = target: T1, σN-NpuN-Mdm2* bait fusion (residues 17-124 of Mdm2) (UniProt Q00987 17-124); test: cell-based or functional assay
[2] = target: T1, σN-NpuN-Mdm2* bait fusion (residues …); test: split intein σ factor circuit in E. coli, sfGFP read by flow cytometry

T1 sequence (Q00987 other isoform, or with tags, fused parts or gaps limits assumed): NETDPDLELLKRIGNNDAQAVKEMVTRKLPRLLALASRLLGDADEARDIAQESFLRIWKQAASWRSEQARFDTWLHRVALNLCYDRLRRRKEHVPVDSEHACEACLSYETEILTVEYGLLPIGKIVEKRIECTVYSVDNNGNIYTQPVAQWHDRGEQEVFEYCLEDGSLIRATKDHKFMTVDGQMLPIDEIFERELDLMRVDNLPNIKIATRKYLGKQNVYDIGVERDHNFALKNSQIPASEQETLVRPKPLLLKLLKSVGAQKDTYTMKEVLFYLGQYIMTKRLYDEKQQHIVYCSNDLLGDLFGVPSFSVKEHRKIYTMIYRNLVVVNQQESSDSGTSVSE

B1: ACE2*-NpuC-σC peptide fusion (N-terminal residues 19-56 of ACE2) (other, not shown: small tags and cut ends)
chain: STIEEQAKTFLDKFNHEAEDLFYQSSLASWNYNTNITERGGKGGPGGRGGVGGGGGIGGGFIASNCWLDTRPAPDEQLEASAQSRRMAQALDQLPDRQREAIVLQYYQELSNTEAAALMQISVEALESLLSRARRNLRSHLAEAPGADLSGRRKP
notes: also called ACE2a1; pAMK-857
For B1, the “drop of the fluorescent output of the circuit relative to the PMI/Mdm2* pair” value [1] was 15 fold and the binding result [2] was “no binding”.

Reference: patent US20230227508A1 (MIT, published 2023)
